# Measured values as given in patent publication US20250152742A1, “COMPOSITIONS AND METHODS FOR NEUROLOGICAL DISEASES” (Trames Bio, Inc., priority 2022, published 2025).
# Where a chain is given by its changes, count along the chain named. Names and notes keep the numbering of the source.
# B1: CODA333: engineered receptor: L131S in SEQ ID NO: 33 (protein)
# chain: MRCSPGGVWLALAASLLHVSLQGEFQRKLYKELVKNYNPLERPVANDSQPLTVYFSLSLLQIMDVDEKNQVLTTNIWLQMSWTDHYLQWNVSEYPGVKTVRFPDGQIWKPDILLYNSADERFDATFHTNVSVNSSGHCQYLPPGIFKSSCPMDLKNFPMDVQTCKLKFGSWSYGGWSLDLQMQEADISGYIPNGEWDLVGIPGKRSERFYECCKEPYPDVTFTVTMRRRMGYYLIQMYIPSLLIVILSWISFWINMDAAPARVGLGITTVLTMTTQSSGSRASLPKVSYVKAIDIWMAVCLLFVFSALLEYAAVNFVSRQHKELLRFRRKRRHHKSPMLNLFQEDEAGEGRFNFSAYGMGPACLQAKDGISVKGANNSNTTNPPPAPSKSPEEMRKLFIQRAKKIDKISRIGFPMAFLIFNMFYWIIYKIVRREDVHNQ
# modifications: synthetic sequence of chimeric LGIC
# B2: CODA334: engineered receptor: L131Q in SEQ ID NO: 33 (protein)
# chain: B1 chain with S131Q
# modifications: synthetic sequence of chimeric LGIC
# System: engineered chimeric receptor SEQ ID NO: 33 and its mutants (human α7-nAChR ligand binding domain / human GlyRα1 ion pore domain) in Lenti-X 293T cells
# Test: YFP fluorescence quenching anion reporter plate reader assay (percent quench, EC50)
# Assay type: cell-based
# Conditions: for YFP fluorescence quenching using CNL001 (percent quench): receptor named in row; for YFP fluorescence quenching using Facinicline, 30 nM fac: ligand Facinicline 30 nM; for YFP fluorescence quenching using Facinicline, 300 nM fac: ligand Facinicline 300 nM; for YFP fluorescence quenching using Facinicline, 30 uM fac: ligand Facinicline 30 uM; for YFP fluorescence quenching using TC-6987, 1 uM tc6987: ligand TC-6987 1 uM; for YFP fluorescence quenching using TC-6987, 10 uM tc6987: ligand TC-6987 10 uM; for YFP fluorescence quenching using TC-6987, 500 uM tc6987: ligand TC-6987 500 uM; for YFP fluorescence quenching using Varenicline, 3 nM var: ligand Varenicline 3 nM; for YFP fluorescence quenching using Varenicline, 30 nM var: ligand Varenicline 30 nM; for YFP fluorescence quenching using Varenicline, 300 nM var: ligand Varenicline 300 nM; for YFP fluorescence quenching using Varenicline, 500 nM var: ligand Varenicline 500 nM; for YFP fluorescence quenching using Varenicline, 1 uM var: ligand Varenicline 1 uM
# In short: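 Lenti-X 293T cells co-expressing an anion-quenchable YFP were transiently transfected with receptor DNA, then ligand was added in NaI-substituted buffer (pH 7.2) after 30 min at 37 °C. Fluorescence was read about 2 min; percent quench = mean of last 10 s over 15 s pre-ligand baseline.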
# [1] = 1 nM CNL001, first column so headed
# [2] = 1 nM CNL001, second column so headed
# [3] = 3 nM brd (TC-5619/Bradanicline)
# [4] = 10 nM CNL001, first column so headed
# [5] = 10 nM CNL001, second column so headed
# [6] = 30 nM brd (TC-5619/Bradanicline)
# [7] = 50 nM CNL001, first column so headed
# [8] = 50 nM CNL001, second column so headed
# [9] = 100 nM CNL001, first column so headed
# [10] = 100 nM CNL001, second column so headed
# [11] = 300 nM brd (TC-5619/Bradanicline)
# [12] = 1 uM CNL001, first column so headed
# [13] = 1 uM CNL001, second column so headed
molecule,measurement,setting,value
B1,YFP fluorescence quenching using CNL001 (percent quench),[1],76.165%
same,YFP fluorescence quenching using CNL001 (percent quench),[2],78.463%
same,YFP fluorescence quenching using TC-5619/Bradanicline (percent quench),1 nM brd (TC-5619/Bradanicline),−0.85%
same,YFP fluorescence quenching using TC-5619/Bradanicline (percent quench),[3],−2.05%
same,YFP fluorescence quenching using CNL001 (percent quench),[4],79.349%
same,YFP fluorescence quenching using CNL001 (percent quench),[5],78.238%
same,YFP fluorescence quenching using TC-5619/Bradanicline (percent quench),10 nM brd (TC-5619/Bradanicline),−2.8%
same,YFP fluorescence quenching using TC-6683 (percent quench),30 nM TC-6683,−23.88%
same,YFP fluorescence quenching using TC-5619/Bradanicline (percent quench),[6],−2.07%
same,YFP fluorescence quenching using CNL001 (percent quench),[7],80.221%
same,YFP fluorescence quenching using CNL001 (percent quench),[8],81.789%
same,YFP fluorescence quenching using ABT-126 (percent quench),50 nM abt (ABT-126),−20.99%
same,YFP fluorescence quenching using CNL001 (percent quench),[9],81.855%
same,YFP fluorescence quenching using CNL001 (percent quench),[10],80.766%
same,YFP fluorescence quenching (percent quench),100 nM CNL002,−15.44%
same,YFP fluorescence quenching using ABT-126 (percent quench),100 nM abt (ABT-126),−16.21%
same,YFP fluorescence quenching using AZD-0328 (percent quench),100 nM azd0328,38.49%
same,YFP fluorescence quenching using TC-5619/Bradanicline (percent quench),100 nM brd (TC-5619/Bradanicline),30.34%
same,YFP fluorescence quenching using TC-6683 (percent quench),300 nM TC-6683,−21.46%
same,YFP fluorescence quenching using ABT-126 (percent quench),300 nM abt (ABT-126),−13.34%
same,YFP fluorescence quenching using AZD-0328 (percent quench),300 nM azd0328,67.13%
same,YFP fluorescence quenching using TC-5619/Bradanicline (percent quench),[11],50.56%
same,YFP fluorescence quenching using CNL001 (percent quench),[12],81.707%
same,YFP fluorescence quenching using CNL001 (percent quench),[13],82.665%
same,YFP fluorescence quenching (percent quench),1 uM CNL002,15.21%
same,YFP fluorescence quenching using ABT-126 (percent quench),1 uM abt (ABT-126),4.96%
same,YFP fluorescence quenching using TC-5619/Bradanicline (percent quench),1 uM brd (TC-5619/Bradanicline),72.42%
same,YFP fluorescence quenching using TC-6683 (percent quench),3 uM TC-6683,−21.07%
same,YFP fluorescence quenching (percent quench),10 uM ach (acetylcholine),−10.11%
same,YFP fluorescence quenching using TC-6683 (percent quench),30 uM TC-6683,−16.15%
same,YFP fluorescence quenching using AZD-0328 (percent quench),30 uM azd0328,80.61%
same,YFP fluorescence quenching using TC-6683 (percent quench),100 uM TC-6683,−18.96%
same,YFP fluorescence quenching (percent quench),100 uM ach (acetylcholine),−10.05%
same,YFP fluorescence quenching (percent quench),1 mM ach (acetylcholine),32.11%
same,YFP fluorescence quenching (percent quench),3 mM ach (acetylcholine),57.37%
same,"YFP fluorescence quenching using Facinicline, 30 nM fac",,6.27
same,"YFP fluorescence quenching using Facinicline, 300 nM fac",,69.8
same,"YFP fluorescence quenching using Facinicline, 10 uM fac",ligand Facinicline 10 uM,80.07
same,"YFP fluorescence quenching using Facinicline, 30 uM fac",,81.35
same,"YFP fluorescence quenching using TC-6987, 1 uM tc6987",,−3.87
same,"YFP fluorescence quenching using TC-6987, 3 uM tc6987",ligand TC-6987 3 uM,−20.2
same,"YFP fluorescence quenching using TC-6987, 5 uM tc6987",ligand TC-6987 5 uM,−15.25
same,"YFP fluorescence quenching using TC-6987, 10 uM tc6987",,4.92
same,"YFP fluorescence quenching using TC-6987, 30 uM tc6987",ligand TC-6987 30 uM,14.75
same,"YFP fluorescence quenching using TC-6987, 50 uM tc6987",ligand TC-6987 50 uM,21.33
same,"YFP fluorescence quenching using TC-6987, 100 uM tc6987",ligand TC-6987 100 uM,29.7
same,"YFP fluorescence quenching using TC-6987, 300 uM tc6987",ligand TC-6987 300 uM,20.79
same,"YFP fluorescence quenching using TC-6987, 500 uM tc6987",,44.37
same,"YFP fluorescence quenching using Varenicline, 3 nM var",first column,−4.782
same,"YFP fluorescence quenching using Varenicline, 3 nM var",second column,1.048
same,"YFP fluorescence quenching using Varenicline, 30 nM var",first column,2.084
same,"YFP fluorescence quenching using Varenicline, 30 nM var",second column,5.022
same,"YFP fluorescence quenching using Varenicline, 300 nM var",first column,12.162
same,"YFP fluorescence quenching using Varenicline, 300 nM var",second column,12.979
same,"YFP fluorescence quenching using Varenicline, 500 nM var",first column,29.238
same,"YFP fluorescence quenching using Varenicline, 500 nM var",second column,25.614
same,"YFP fluorescence quenching using Varenicline, 1 uM var",first column,43.863
same,"YFP fluorescence quenching using Varenicline, 1 uM var",second column,39.346
B2,YFP fluorescence quenching using CNL001 (percent quench),[1],76.165%
same,YFP fluorescence quenching using CNL001 (percent quench),[2],78.463%
same,YFP fluorescence quenching using TC-5619/Bradanicline (percent quench),[3],41.92%
same,YFP fluorescence quenching using CNL001 (percent quench),[4],79.349%
same,YFP fluorescence quenching using CNL001 (percent quench),[5],78.238%
same,YFP fluorescence quenching using TC-6683 (percent quench),30 nM TC-6683,−17.99%
same,YFP fluorescence quenching using TC-5619/Bradanicline (percent quench),[6],63.65%
same,YFP fluorescence quenching using CNL001 (percent quench),[7],80.221%
same,YFP fluorescence quenching using CNL001 (percent quench),[8],81.789%
same,YFP fluorescence quenching using ABT-126 (percent quench),50 nM abt (ABT-126),23.65%
same,YFP fluorescence quenching using CNL001 (percent quench),[9],82%
same,YFP fluorescence quenching using CNL001 (percent quench),[10],80.766%
same,YFP fluorescence quenching (percent quench),100 nM CNL002,49.9%
same,YFP fluorescence quenching using ABT-126 (percent quench),100 nM abt (ABT-126),61.83%
same,YFP fluorescence quenching using AZD-0328 (percent quench),100 nM azd0328,80.55%
same,YFP fluorescence quenching using TC-6683 (percent quench),300 nM TC-6683,−23.26%
same,YFP fluorescence quenching using ABT-126 (percent quench),300 nM abt (ABT-126),76.44%
same,YFP fluorescence quenching using AZD-0328 (percent quench),300 nM azd0328,83.15%
same,YFP fluorescence quenching using TC-5619/Bradanicline (percent quench),[11],64.85%
same,YFP fluorescence quenching using CNL001 (percent quench),[12],81.707%
same,YFP fluorescence quenching using CNL001 (percent quench),[13],82.665%
same,YFP fluorescence quenching (percent quench),1 uM CNL002,80.72%
same,YFP fluorescence quenching using ABT-126 (percent quench),1 uM abt (ABT-126),77.68%
same,YFP fluorescence quenching using TC-6683 (percent quench),3 uM TC-6683,−18.84%
same,YFP fluorescence quenching (percent quench),10 uM ach (acetylcholine),−2.63%
same,YFP fluorescence quenching (percent quench),30 uM CNL002,80.97%
same,YFP fluorescence quenching using TC-6683 (percent quench),30 uM TC-6683,−16.92%
same,YFP fluorescence quenching (percent quench),30 uM ach (acetylcholine),30.06%
same,YFP fluorescence quenching using AZD-0328 (percent quench),30 uM azd0328,82.53%
same,YFP fluorescence quenching using TC-6683 (percent quench),100 uM TC-6683,−15.59%
same,YFP fluorescence quenching (percent quench),100 uM ach (acetylcholine),71.27%
same,YFP fluorescence quenching (percent quench),1 mM ach (acetylcholine),79.66%
same,YFP fluorescence quenching (percent quench),3 mM ach (acetylcholine),74.9%
same,"YFP fluorescence quenching using Facinicline, 30 nM fac",,83.07
same,"YFP fluorescence quenching using Facinicline, 100 nM fac",ligand Facinicline 100 nM,85.36
same,"YFP fluorescence quenching using Facinicline, 300 nM fac",,84.19
same,"YFP fluorescence quenching using Facinicline, 30 uM fac",,82.75
same,"YFP fluorescence quenching using TC-6987, 1 uM tc6987",,74.1
same,"YFP fluorescence quenching using TC-6987, 10 uM tc6987",,81.7
same,"YFP fluorescence quenching using TC-6987, 500 uM tc6987",,80.18
same,"YFP fluorescence quenching using Varenicline, 3 nM var",first column,−5.192
same,"YFP fluorescence quenching using Varenicline, 3 nM var",second column,−4.327
same,"YFP fluorescence quenching using Varenicline, 30 nM var",first column,−0.688
same,"YFP fluorescence quenching using Varenicline, 30 nM var",second column,0.672
same,"YFP fluorescence quenching using Varenicline, 300 nM var",first column,75.189
same,"YFP fluorescence quenching using Varenicline, 300 nM var",second column,74.923
same,"YFP fluorescence quenching using Varenicline, 500 nM var",first column,79.048
same,"YFP fluorescence quenching using Varenicline, 500 nM var",second column,80.337
same,"YFP fluorescence quenching using Varenicline, 1 uM var",first column,79.766
same,"YFP fluorescence quenching using Varenicline, 1 uM var",second column,76.836
